The source of these data is patent US10357549B2, “Pigment epithelium-derived factor (PEDF) and peptide derivatives thereof for use in osteoblast differentiation and bone growth” (Yale University, priority 2014, dated 2019).

The test has as its system PEDF knock-out mice. Description: PEDF i.p. treatment of young and old PEDF KO mice, trabecular bone. The class given is in vivo, mouse. The settings on record: young (200 ng i.p. every third day, two weeks) and old (25 μg/kg i.p. every third day, 4 weeks) PEDF KO mice. The text has this: A ScanCo μCT 35 scanner (ScanCo Medical AG, Brüttisellen, Switzerland; Yale Center Core for Musculoskeletal Disorders) was used to assess the distal femur for trabecular and cortical bone morphology from 21-d-old WT and PEDF-KO mice in a blinded manner. Axial, sagittal, and coronal images were obtained at standardized sites, and measures of trabecular and total bone volumes and other parameters of bone density were obtained (Bouxsein et al., 2010, J Bone Miner Res, 25: 1468-1486). For histology, femurs and tibiae of 14- and 26-d-old mice were dissected, cleaned, and fixed in 70% ethanol, then further dehydrated through graded ethanols, cleared in toluene, and embedded in methyl methacrylate (MMA). After polymerization, MMA blocks were removed from the mold, cut to size, sanded, and polished on a Buehler Metasery (Buehler, Lake Bluff, Ill., USA). Longitudinal sections of […] were cut using a Reichert-Jung RM 2165 microtome (Leica Microsystems, Jena, Germany) using a D-profile tungsten carbide knife, mounted on charged slides, and stained with either Goldner's trichrome or Toluidine Blue O (pH 3.7).
Experiments were conducted to examine the effects of PEDF treatment on bone in young (44 days) and old (6 month) PEDF knock-out mice. PEDF (200 ng) was delivered i.p. every third day for two weeks in young mice. […]

B1: Pigment epithelium-derived factor (protein)
chain: QNPASPPEEGSPDPDSTGALVEEEDPFFKVPVNKLAAAVSNFGYDLYRVRSSTSPTTNVLLSPLSVATALSALSLGAEQRTESIIHRALYYDLISSPDIHGTYKELLDTVTAPQKNLKSASRIVFEKKLRIKSSFVAPLEKSYGTRPRVLTGNPRLDLQEINNWVQAQMKGKLARSTKEIPDEISILLLGVAHFKGQWVTKFDSRKTSLEDFYLDEERTVRVPMMSDPKAVLRYGLDSDLSCKIAQLPLTGSMSIIFFLPLKVTQNLTLIEESLTSEFIHDIDRELKTVQAVLTVPKLKLSYEGEVTKSLQEMKLQSLFDSPDFSKITGKPIKLTQVEHRAGFEWNEDGAGTTPSPGLQPAHLTFPLDYHLNQPFIFVLRDTDTGALLFIGKILDPRGP
notes: Full-length recombinant human PEDF generated in HEK cells; 50-kDa secreted protein of the SERPIN superfamily
On to B1, for which the “trabecular bone volume (BV)” value is given as “increases” and the trabecular thickness entry is “increases”.
